Assay results taken from article PMC8465892, “CDR1 Composition Can Affect Nanobody Recombinant Expression Yields” (Biomolecules, 2021).
Positions count from the first letter of the chain named. In names and notes the source's numbering stands.

B1: A10 wt (VHH)
VHH: EVQLQASGGGFVQPGGSLRLSCAASGATSNISNMGWFRQAPGKEREFVSAISRAESRPLYYADSVKGRFTISRDNSKNTVYLQMNSLRAEDTATYYCAYMPLVRHKAYWGQGTQVTVSS
notes: anti-Her2 nanobody isolated by panning a synthetic library; also called anti-Her2 ectodomain nanobody A10; source: pET-derived vectors, produced as previously reported [17]
B2: A10 mutKG (VHH)
VHH: EVQLQASGGGFVQPGGSLRLSCAASGAGTSNISNMGWFRQAPGKEREFVSAISRAESRPLYYADSVKGRFTISRDNSKNTVYLQMNSLRAEDTATYYCAYMPLVRHKAYWGQGTQVTVSS
notes: A10 wt with a glycine inserted after A29 in CDR1 (G29a); also called G29a; source: gene synthetized by Twist Bioscience, pET-derived vectors, produced as previously reported [17]
B3: A10 mutG0 (VHH)
VHH: B2 VHH with G28T, T29S, S30G
notes: A10 wt with a glycine inserted after S31 in CDR1 (G31a); also called G31a; source: gene synthetized by Twist Bioscience, pET-derived vectors, produced as previously reported [17]
B4: A10 mutKG.1 (VHH)
VHH: B2 VHH with A6E, F11L, S50A, R89K, A90P
notes: A10 mutKG (G29a) with five framework mutations printed as Q8E, F13L, S51A, R90K, A91P; source: gene synthetized by Doulix, pET-derived vectors, produced as previously reported [17]

target: T1, Her2 ectodomain-Fc (UniProt P04626 23-652); experiment: SPR; Biacore T200, 25 °C; Her2 ectodomain-Fc immobilized by amine-coupling on a CM5 chip at 1180 RU; nanobodies injected at 30 µL/min in 20 mM Hepes, 150 mM NaCl, 3 mM EDTA, 0.005% Tween 20, pH 7.4; eight concentrations between 250 and 3.5 nM; 1:1 Langmuir model; conditions: both partners purified
T1 construct: Her2 ectodomain

Kd | Binder
4.9 nM | B1
34.7 nM | B2
23.5 nM | B3
9.9 nM | B4
